Where two headings read alike, the source gives them in different places.

In general, Kd refers to the free concentration of one partner at which half of the binding sites on the other are occupied at equilibrium, for simple one-to-one binding.

The target in test [1] is soluble methane monooxygenase hydroxylase component (sMMOH), (αβγ)2, from Methylosinus trichosporium OB3b (Methylosinus trichosporium OB3b) (UniProt P27353). The test is described as follows: NMR titration.
Test [2] shares this target. The test is described as follows: NMR titration. The source holds these as a separate data set.
For test [3] the target is unchanged. The test is described as follows: NMR titration. This is another data set of the same source.
In test [4] the target is MMOR (Methylococcus capsulatus) (UniProt P22868). To be noted: cited from earlier work.
Test [5] has as its target MMOB (Methylococcus capsulatus) (UniProt P18797). Particulars: cited from earlier work.
The target of test [6] is MMOB (Methylosinus trichosporium) (UniProt P27356). Put plainly: fluorescence quenching. Particulars: cited from earlier work.
The target in test [7] is MMOR (Methylosinus trichosporium) (UniProt Q53563). To be noted: cited from earlier work.

As to “methane monooxygenase reductase component (MMOR), unlabelled (from UniProt Q53563 1-340) (enzyme)”, the results for the Kd in test [1] and in test [2] were 90 nM and 60 nM, respectively. Moreover, the figures for the half dissociation value in test [2] and in test [3] were 9.1 µM and 13.7 µM, respectively.

For sMMOH (diferric) (from UniProt P22869), the Kd in test [4] was 900 nM; in test [5], 550 nM.

In the case of sMMOH (diferric) (from UniProt P27353), the Kd is 68 nM in test [6] and 10 nM in test [7].

Values taken from article PMC8345336.
